Measurements from IntAct's records for PubMed 19628817.

B1: Succinate dehydrogenase assembly factor 2, mitochondrial (Homo sapiens), Q9NX18 (parent)
chain: MAVSTVFSTSSLMLALSRHSLLSPLLSVTSFRRFYRGDSPTDSQKDMIEIPLPPWQERTDESIETKRARLLYESRKRGMLENCILLSLFAKEHLQHMTEKQLNLYDRLINEPSNDWDIYYWATEAKPAPEIFENEVMALLRDFAKNKNKEQRLRAPDLEYLFEKPR

Variants of: B1
Details: with sdha_human SDHA

Row | Variant | effect of a mutation on the interaction
1 | G78R | disrupting interaction strength
